Values of other authors, collected in patent publication US20050074809A1, “System and method for systematic prediction of ligand/receptor activity” (priority 2001, published 2005).

Experiments:
HLA-A*0201 molecule = HLA-A*0201 molecule (Homo sapiens, UniProt P04439, D140Y/D185E/D98H/E176V/E277Q/G131W/G231S/I119V/I121R/I166T/I218V/L300P/L318F/N151K/N90K/P208A/P217A/Q86G/Q94H/R138H/R169H/T345S); details: result in words; Kawakami and Rosenberg 1996
HLA-DRB1*0101 molecule = HLA-DRB1*0101 molecule (Homo sapiens, UniProt P01903+P01911, A100R/D57E/F55L/F60I/F76Y/I96L/L162R/M171V/P40L/Q125E/R42F/V115G/Y59C); details: result in words; reported binding data

Row | Sequence | binding to HLA-A*0201 (HLA-A*0201 molecule) | binding to HLA-DR1(0101) (HLA-DRB1*0101) (HLA-DRB1*0101 molecule)
1 | PLWGPRALV [Peptide of the mage-3 antigen (SWISSPROT:MAG3_HUMAN)] | binds | –
2 | PKPPKPVSKMRMATPLLMQALPMG [Peptide of class II invariant chain (SwissProt Acc. P04233)] | – | binds
3 | FAGKNTDLE | – | does not bind
